Converted amounts (≈) assume the structure as drawn. Numbered stars: 1 amine (or outer) side, 2 acyl side, 3 side chain; on linkers, the order of the positions; unused ones are H or OH. Square brackets hold non-standard residues; d marks the D form. Side chains are listed from the residue outwards. Ends that are not written are not given here. Peptide text beside a SMILES is read from it. * marks the point of attachment. C18 diacid = O=C(O)CCCCCCCCCCCCCCCCC(=O)*; γGlu = O=C(O)[C@H](CCC(=O)[*:2])N[*:1]; AEEA = NCCOCCOCC(=O)O; Aib = CC(C)(N)C(=O)O

The target of data set [1] is T1, human GIP receptor (hGIPR) (Homo sapiens, UniProt P48546).
T1 sequence (P48546 22-466): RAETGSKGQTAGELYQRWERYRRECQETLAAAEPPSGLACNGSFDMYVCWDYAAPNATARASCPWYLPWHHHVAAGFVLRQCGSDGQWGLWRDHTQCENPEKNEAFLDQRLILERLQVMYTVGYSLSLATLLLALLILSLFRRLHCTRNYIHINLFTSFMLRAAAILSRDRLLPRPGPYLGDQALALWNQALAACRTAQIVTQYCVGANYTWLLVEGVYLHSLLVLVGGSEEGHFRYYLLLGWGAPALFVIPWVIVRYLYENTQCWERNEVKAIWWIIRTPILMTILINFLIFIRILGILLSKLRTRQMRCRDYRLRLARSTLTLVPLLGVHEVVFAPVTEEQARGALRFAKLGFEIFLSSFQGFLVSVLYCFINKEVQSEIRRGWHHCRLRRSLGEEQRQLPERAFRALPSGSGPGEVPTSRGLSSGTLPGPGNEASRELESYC
The data set can be described thus: Binding assay, displacement of [125I]GIP from HEK-293 membranes over-expressing GIPR (SPA). To be noted: [125I]GIP displacement. In outline:
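Membranes from HEK-293 cells over-expressing human GIPR or GLP-1R, isolated by homogenising, sonicating and ultracentrifuging at 100000×g into HEPES/EDTA/NaCl buffer with protease inhibitors, were used for binding.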
A general note: Loss of bound radioactivity is the signal in a displacement assay; it reports binding, not function.

Data set [2] has as its target human GLP-1 receptor (hGLP-1R) (Homo sapiens, UniProt P43220). The data set is described as follows: In vitro cellular cAMP assay for GLP-1 receptor efficacy (HEK-293 cell line over-expressing receptor). To be noted: HEK-293, 0.1% BSA. Format: cell-based.
Data set [3] is described as follows: Solubility assessment (UHPLC-UV of supernatant, target 10 mg/ml). Type of data set: physicochemical. In outline: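 Peptides at 10 mg/ml (purity-corrected) in 100 mM phosphate pH 7.4, optionally with 2.7 mg/ml m-cresol; gentle agitation 1 h, then 5° C. overnight (24 h). Supernatant after 15 min centrifugation at 2500 RCF quantified by UHPLC-UV, with sequence-based extinction coefficients.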

Data set [4] has as its target T2, human GIP receptor (Homo sapiens, UniProt P48546).
T2 construct: human adipocytes endogenously expressing the human GIP receptor; host or cells: human preadipocytes (Lonza) differentiated to adipocytes
T2 sequence (P48546 22-466): T1 sequence (P48546 22-466)
The data set can be described thus: In vitro cellular cAMP assay for GIP receptor efficacy (human adipocytes). Format: cell-based. Conditions: read-out: hGIPR Emax. In short, it runs like this:
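Human preadipocytes expanded, then differentiated 6 days (insulin, dexamethasone, PPARγ agonist, 200 μM IBMX, L-thyroxine) before plating at 5000 cells/well. Test compound applied 30 min at room temperature; cAMP measured by HTRF after 1 h with lysis-buffer reagents, read as 665/620 nm fluorescence ratio.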
Background: cAMP levels reflect the balance of adenylyl cyclase and phosphodiesterase activity.

A short description of data set [5]: Chemical stability assessment (UHPLC-UV purity loss on storage in solution). Format: physicochemical. To be noted: Chemical stability buffer system A: 20 mM phosphate buffer pH 7.4; ~300 μM. The procedure: Purity of a peptide batch was determined through UHPLC/MS prior to chemical stability measurement. The target concentration was 300 μM pure compound. Solutions from solid samples were prepared in the following buffer systems with a concentration of ˜300 μM compound based on the previously determined % purity: • Chemical stability buffer system A) 20 mM phosphate buffer pH 7.4, • Chemical stability buffer system B) 8 mM phosphate buffer pH 7.4, 14 mg/ml propylene glycol, 5.5 mg/ml phenol • Chemical stability buffer system C) 100 mM phosphate buffer pH 7.4, 2.7 mg/ml m-cresol
Prepared solutions were filtered through […] pore size and filled into sterilized glass containers under laminar flow conditions.
Glass containers were stored for 28 days at 5 and 40° C. After this time, the samples were centrifuged for 15 min at 2500 RCF. Then 1.5 μl of the undiluted supernatant were analysed with UHPLC-UV.
The chemical stability was rated through the relative loss of purity calculated by the equation: […]
The purity is calculated as
The analytical methods used were Analytical UHPLC Method B or C.
Peptide samples were prepared in Chemical stability buffer system A or B and stability was assessed as described in Methods.

The target in data set [6] is T3, human GIP receptor (human, UniProt P48546 22-466).
T3 sequence (looked up): T1 sequence (P48546 22-466)
The data set can be described thus: cell-based or functional assay.

The target of another data set is human GLP-1 receptor (human, UniProt P43220 24-463). The data set is described as follows: cell-based or functional assay.
In data set [7] the target is T3, human GIP receptor. The data set can be described thus: cell-based or functional assay. The source holds these as a separate data set.
The target in data set [8] is T3, human GIP receptor. The data set can be described thus: displacement of [125I]GIP from HEK-293 membranes expressing hGIPR (SPA beads).

Sequence of human GLP-1 receptor (hGLP-1R) (P43220 24-463): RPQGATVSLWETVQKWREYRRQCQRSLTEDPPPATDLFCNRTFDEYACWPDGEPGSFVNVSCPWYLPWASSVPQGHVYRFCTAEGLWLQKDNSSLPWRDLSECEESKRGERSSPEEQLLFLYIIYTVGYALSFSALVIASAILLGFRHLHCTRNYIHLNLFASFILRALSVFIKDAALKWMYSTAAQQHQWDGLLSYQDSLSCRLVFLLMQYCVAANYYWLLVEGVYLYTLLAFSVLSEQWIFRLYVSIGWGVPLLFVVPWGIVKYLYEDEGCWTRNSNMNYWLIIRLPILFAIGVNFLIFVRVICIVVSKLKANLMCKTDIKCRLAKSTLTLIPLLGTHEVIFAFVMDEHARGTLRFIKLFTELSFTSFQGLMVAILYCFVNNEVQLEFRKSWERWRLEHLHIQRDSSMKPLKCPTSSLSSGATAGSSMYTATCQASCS

`CC[C@H](C)[C@H](NC(=O)[C@H](CCCNC(=N)N)NC(=O)[C@H](CC(=O)O)NC(=O)[C@H](CCCCNC(=O)COCCOCCNC(=O)COCCOCCNC(=O)CC[C@H](NC(=O)CCCCCCCCCCCCCCCCC(=O)O)C(=O)O)NC(=O)C(C)(C)NC(=O)[C@@H](NC(=O)[C@H](CO)NC(=O)[C@H](CC(C)C)NC(=O)[C@H](CC(=O)O)NC(=O)[C@H](CO)NC(=O)[C@@H](NC(=O)[C@H](Cc1ccccc1)NC(=O)[C@@H](NC(=O)CNC(=O)[C@H](CCC(=O)O)NC(=O)C(C)(C)NC(=O)[C@@H](N)Cc1ccc(O)cc1)[C@@H](C)O)[C@@H](C)CC)[C@@H](C)CC)C(=O)N[C@@H](Cc1c[nH]cn1)C(=O)N[C@@H](CCC(N)=O)C(=O)NC(C)(C)C(=O)N[C@@H](CCC(=O)O)C(=O)N[C@@H](Cc1ccccc1)C(=O)N[C@H](C(=O)N[C@@H](CCC(=O)O)C(=O)N[C@@H](Cc1c[nH]c2ccccc12)C(=O)N[C@@H](CC(C)C)C(=O)N[C@@H](CC(C)C)C(=O)N[C@@H](C)C(=O)N[C@@H](CCC(N)=O)C(=O)N[C@@H](CCC(=O)O)C(=O)N1CCC[C@H]1C(=O)N[C@@H](CO)C(=O)N[C@@H](CO)C(=O)NCC(=O)N[C@@H](C)C(=O)N1CCC[C@H]1C(=O)N1CCC[C@H]1C(=O)N1CCC[C@H]1C(=O)N[C@@H](CO)C(N)=O)[C@@H](C)CC` [SEQ ID NO: 29, H2N-Y-Aib-E-G-T-F-I-S-D-L-S-I-Aib-K[{AEEA}2-gGlu-C18OH]-D-R-I-H-Q-Aib-E-F-I-E-W-L-L-A-Q-E-P-S-S-G-A-P-P-P-S-NH2] (H-Y[Aib]EGTFISDLSI[Aib]K([AEEA-AEEA-γGlu-C18 diacid])DRIHQ[Aib]EFIEWLLAQEPSSGAPPPS-NH2): in data set [1], the concentration for half-maximal inhibition (IC50) – broadly, the midpoint of a concentration-inhibition curve – was determined as 0.2 nM. The EC50 (as a rule, the midpoint of the concentration-response curve) in [2] was > 10 nM. In addition, the Soluble amount in data set [3] (24 h, pH 7.4) stood at 9.1 mg/mL. The solubility (usually how much of the substance goes into solution per volume) at 24 h in data set [3] (pH 7.4, Soluble amount) amounted to 8000 µg/mL (≈ 1590 µM). For the same molecule, the Emax (usually the size of the effect at its maximum, as opposed to the concentration needed) at human GIP receptor [4] is 119%. Besides, the “Relative purity loss over 28 days at 40° C.” value in [5] was determined as 5.6%.

B1: SEQ ID NO: 19 (peptide)
peptide: Y[Aib]EGTFISDLSI[Aib]K([AEEA-AEEA-γGlu-C18 diacid])EEIHQ[Aib]EFIEWLLAQGPSSGAPPPS-NH2
modifications: N-terminus assumed
SMILES: CC[C@H](C)[C@H](NC(=O)[C@H](CCC(=O)O)NC(=O)[C@H](CCC(=O)O)NC(=O)[C@H](CCCCNC(=O)COCCOCCNC(=O)COCCOCCNC(=O)CC[C@H](NC(=O)CCCCCCCCCCCCCCCCC(=O)O)C(=O)O)NC(=O)C(C)(C)NC(=O)[C@@H](NC(=O)[C@H](CO)NC(=O)[C@H](CC(C)C)NC(=O)[C@H](CC(=O)O)NC(=O)[C@H](CO)NC(=O)[C@@H](NC(=O)[C@H](Cc1ccccc1)NC(=O)[C@@H](NC(=O)CNC(=O)[C@H](CCC(=O)O)NC(=O)C(C)(C)NC(=O)[C@@H](N)Cc1ccc(O)cc1)[C@@H](C)O)[C@@H](C)CC)[C@@H](C)CC)C(=O)N[C@@H](Cc1c[nH]cn1)C(=O)N[C@@H](CCC(N)=O)C(=O)NC(C)(C)C(=O)N[C@@H](CCC(=O)O)C(=O)N[C@@H](Cc1ccccc1)C(=O)N[C@H](C(=O)N[C@@H](CCC(=O)O)C(=O)N[C@@H](Cc1c[nH]c2ccccc12)C(=O)N[C@@H](CC(C)C)C(=O)N[C@@H](CC(C)C)C(=O)N[C@@H](C)C(=O)N[C@@H](CCC(N)=O)C(=O)NCC(=O)N1CCC[C@H]1C(=O)N[C@@H](CO)C(=O)N[C@@H](CO)C(=O)NCC(=O)N[C@@H](C)C(=O)N1CCC[C@H]1C(=O)N1CCC[C@H]1C(=O)N1CCC[C@H]1C(=O)N[C@@H](CO)C(N)=O)[C@@H](C)CC
notes: Synthetic peptide, 39 residues
For the molecule B1, in the data set with human GIP receptor [6], the “hGIPR EC50 (cAMP, human adipocytes)” value is 8 nM and the “hGIPR Emax (cAMP, human adipocytes)” value was 94%. In the data set with human GLP-1 receptor, the “EC50 hGLP-1R 0.1% BSA (cAMP, HEK-293)” value was > 10 nM. In addition, in the data set with human GIP receptor [7], the “EC50 hGIPR 0% HSA (cAMP, HEK-293)” value turned out to be 0.0002 nM; the “EC50 hGIPR 0.1% BSA (cAMP, HEK-293)” value was 0.0378 nM; the “EC50 hGIPR 0.1% HSA (cAMP, HEK-293)” value turned out to be 0.0015 nM. In the data set with human GIP receptor [8], this molecule registered an IC50 of 2 nM.

The values are drawn from patent US20240360194A1, “New Peptides as Potent and Selective GIP Receptor Agonists” (Sanofi, priority 2021, published 2024).
